Results published in US20120196763.

B1: recombinant A. fumigatus PPTB (phosphopantetheinyl transferase B), PPTB-NusA fusion protein (protein)
chain: MKLIPFPYPLNIGTDVVHLPRILRLINRPDYFHRFTRRILHEQEQRDFRTRFSLPPPSSGAEKTGLNPITPDMARWLAGRFAAKEAARKAAPAGASSLGWKDVIVRVGEADKGRPEIVYLDPMGCGETGGGRVGKLSISHDGDYVVATVLAAG
B2: recombinant C. albicans PPTB (CaO19.4812), expressed from pET43.1 (protein)
chain: MPKVGTVLGIGVDIVNSVRFERLLTAKSTSFGTRLSKRILHPEHELPLFQQMHSQRQAQYLTGSWAAKEALFKTLDLNSQKEFNFNQWYRFHDSNGKPFIWNDRYKLSDEEFHLSISHDDSLVIATVLRQKVYQI

How the values were obtained:
[1] = molecular target: T1, recombinant C. albicans ACPg (CaO19.8439), pET30 fusion protein
T1 chain: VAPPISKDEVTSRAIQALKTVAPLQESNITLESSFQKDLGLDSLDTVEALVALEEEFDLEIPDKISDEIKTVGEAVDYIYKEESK

[2] = molecular target: T2, recombinant A. fumigatus ACP (acyl carrier protein), truncated form, pET30 fusion protein
T2 chain: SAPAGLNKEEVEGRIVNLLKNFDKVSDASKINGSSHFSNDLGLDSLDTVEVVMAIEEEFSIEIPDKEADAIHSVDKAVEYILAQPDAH

[3] = molecular target: T3, recombinant C. albicans ACPe (CaO19.9975), pET30 fusion protein
T3 chain: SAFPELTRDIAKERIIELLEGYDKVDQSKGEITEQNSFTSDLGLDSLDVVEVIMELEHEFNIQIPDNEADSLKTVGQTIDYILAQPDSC

| Protein | pantetheinylation of ACP with CoA-Bodipy TMR, SDS-PAGE gel under UV light [1] | labelling of ACP with CoA-Bodipy TMR, resolved on SDS-PAGE gel [2] | pantetheinylation of ACP with CoA-Bodipy TMR, SDS-PAGE gel under UV light [2] | pantetheinylation of ACP with CoA-Bodipy TMR, SDS-PAGE gel under UV light [3] | PPTB activity assay with ACP as substrate [2] |
| --- | --- | --- | --- | --- | --- |
| B1 | The A. fumigatus PPTB was able to pantetheinylate both A. fumigatus ACP and ACPg | recombinant PPTB was able to label recombinant ACP (resolved on SDS-PAGE gel) in the presence of magnesium ions and CoA-Bodipy TMR | The A. fumigatus PPTB was able to pantetheinylate both A. fumigatus ACP and ACPg | whereas ACPe was pantetheinylated weakly | – |
| B2 | The C. albicans PPTB pantetheinylated ACPg strongly | – | ACPe and the A. fumigatus ACP were pantetheinylated weakly | ACPe and the A. fumigatus ACP were pantetheinylated weakly | Assays for C. albicans PPTB activity using A. fumigatus ACP as a substrate gave a poor signal |
